This note sets out measurements from patent publication US20060205646.

For data set [1], the system named is T1, p26 protein from Artemia franciscana.
T1 sequence: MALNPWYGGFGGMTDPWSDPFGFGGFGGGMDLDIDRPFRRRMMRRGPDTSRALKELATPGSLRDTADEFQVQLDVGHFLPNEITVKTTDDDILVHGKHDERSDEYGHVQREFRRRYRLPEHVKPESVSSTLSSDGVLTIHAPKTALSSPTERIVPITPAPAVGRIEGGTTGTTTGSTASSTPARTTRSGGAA

The target of another data set is bovine serum albumin (UniProt P02769).
Sequence of bovine serum albumin (P02769 25-607): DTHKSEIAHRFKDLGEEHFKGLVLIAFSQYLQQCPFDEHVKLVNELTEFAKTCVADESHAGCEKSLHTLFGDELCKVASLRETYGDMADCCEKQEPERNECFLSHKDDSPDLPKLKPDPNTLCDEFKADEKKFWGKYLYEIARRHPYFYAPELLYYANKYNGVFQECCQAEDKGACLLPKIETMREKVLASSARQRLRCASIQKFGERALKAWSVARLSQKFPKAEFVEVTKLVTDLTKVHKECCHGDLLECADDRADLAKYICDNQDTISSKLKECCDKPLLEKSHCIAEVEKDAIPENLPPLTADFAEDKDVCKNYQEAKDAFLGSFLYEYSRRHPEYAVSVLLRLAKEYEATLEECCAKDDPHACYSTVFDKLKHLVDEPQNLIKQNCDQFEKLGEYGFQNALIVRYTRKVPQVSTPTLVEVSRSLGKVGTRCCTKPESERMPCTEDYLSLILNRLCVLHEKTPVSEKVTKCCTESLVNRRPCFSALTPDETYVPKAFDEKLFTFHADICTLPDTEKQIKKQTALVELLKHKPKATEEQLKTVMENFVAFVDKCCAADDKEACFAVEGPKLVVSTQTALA

Sequence of activated recombinant MMP9 (chain, as listed by the source): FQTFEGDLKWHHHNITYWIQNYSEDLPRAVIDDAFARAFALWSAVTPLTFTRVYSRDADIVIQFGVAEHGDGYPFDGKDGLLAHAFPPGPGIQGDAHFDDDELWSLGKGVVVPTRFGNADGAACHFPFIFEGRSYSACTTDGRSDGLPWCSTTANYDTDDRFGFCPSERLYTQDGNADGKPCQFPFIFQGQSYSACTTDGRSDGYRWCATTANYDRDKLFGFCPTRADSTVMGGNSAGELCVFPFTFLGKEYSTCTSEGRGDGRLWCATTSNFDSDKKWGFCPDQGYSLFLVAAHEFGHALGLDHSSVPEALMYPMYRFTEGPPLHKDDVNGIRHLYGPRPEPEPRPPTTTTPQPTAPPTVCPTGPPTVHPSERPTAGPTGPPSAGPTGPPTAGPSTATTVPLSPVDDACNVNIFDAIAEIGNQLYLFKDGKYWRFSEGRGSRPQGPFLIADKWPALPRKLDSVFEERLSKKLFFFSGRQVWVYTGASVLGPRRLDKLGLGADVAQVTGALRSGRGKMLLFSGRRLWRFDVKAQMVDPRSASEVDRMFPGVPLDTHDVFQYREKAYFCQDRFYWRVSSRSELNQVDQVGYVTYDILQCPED
Sequence of Heat gamma (chain, as listed by the source): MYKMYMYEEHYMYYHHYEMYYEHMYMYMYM

On to Nde I restriction endonuclease, for which the “cleavage of pET-28a by Nde I after 1 hour pretreatment at 40° C. (agarose gel)” value in data set [1] was “In the presence of 5 µg of p26 protein, Nde I remained fully active, and completely cleaved pET-28a”; in the data set with bovine serum albumin, “An equivalent amount of BSA (5 µg) did not protect the enzyme any better than the buffer control”.
Turning to activated recombinant MMP9, the “cleavage of Fluorogenic Peptide substrate I by 0.270 µg activated recombinant MMP9, 60 µg Heat Gamma” value with Heat gamma is recorded as “Heat gamma efficiently inhibits the MMP9 activity as indicated by a decrease in relative fluorescence”.
